From patent US20260049331A1, “Sense-and-Response of Proteins, Peptides, and Small Molecules Using Ligand-Induced Dimerization Activating RNA Editing (LIDAR)” (The Board of Trustees of the Leland Stanford Junior …, priority 2022, published 2026)

B1: CX3CL1: ligand of CX3CR1-LIDAR (protein)
chain: QHHGVTKCNITCSKMTSKIPVALLIHYQQNQASCGKRAIILETRQHRLFCADPKEQWVKDAMQHLDRQAAALTRNG

Assays:
[1] = biological target: GPCR fused to MCP (inverted GPCR LIDAR design; GPCRs not named); assay: cell-based or functional assay
[2] = system: CCR6-based LIDAR outputting iCASP9 (cLSM01-C5 cells); assay: LIDAR-induced cell apoptosis with iCASP9 output in stable cell line cLSM01-C5; assay type: cell-based; details: only when both CCL20 and AP1903 are present; flow cytometry and microscopy; FIG. 9F
Protocol: In terms of generalizing functional outputs, LIDAR was used to output iCASP9 as a ligand-dependent cell death controller (13) (FIG. 9E), as iCASP9 induces apoptosis in response to the dimerizing molecule AP1903. A monoclonal cell line was generated (cLSM01-C5) expressing all three components of CCR6-based LIDAR by stable PiggyBac integrations. […] Another functional output was then tested, tobacco etch virus (TEV) protease, given our expertise (14) and its broad use (15) in synthetic circuits. A LIDAR-produced TEV protease rescues a fluorescent protein linked via a TEV protease cleavage site to a degron (FIG. 9G). Its dose response curve resembles that of the corresponding LIDAR that directly outputs EGFP (FIG. 9H and FIG. 13F). […] This indicates the potential for LIDAR to be implemented in more complex circuits (16).

[3] = biological target: T1, CCR6-based LIDAR (Homo sapiens, UniProt P51684); assay: CCR6-based LIDAR sensing of secreted or membrane-bound CCL20 from sender cells; assay type: cell-based; details: conditioned media from CCL20-secreting cells or co-culture with cells displaying CCL20; FIG. 10A-D
T1 construct: ADAR2dd (deaminase domain of ADAR2); expressed in transfected cells; host or cells: HEK293 (receiver cells)
From the text: Inspired by examples from synNotch (19, 20) and given the advantage that LIDAR could potentially sense both membrane-bound and soluble ligands. LIDAR was used to drive cell-cell interactions to ultimately program complex multicellular behaviors (21-23). CCR6-based LIDAR senses its ligand, CCL20 (FIG. 10A-D), when the receiver cells are either exposed to conditioned media from CCL20-secreting cells (FIG. 10A, B) or co-cultured with cells displaying CCL20 on their surface (FIG. 10C, D). […] Receiver cells surrounding cells that produce secreted ligands were plated (FIG. 10E), a response gradient was observed going from the sender cells outwards (FIG. 10F). In contrast, when the receiver cells with sender cells producing a membrane-bound ligand were tested, the response pattern is limited to the sender-receiver interface (FIG. 10G, H). The images were quantified to extract the LIDAR output intensity profiles in response to membrane-bound and secreted ligands.

[4] = system: AVPR-LIDAR and CX3CR1-LIDAR; assay: orthogonal ChaCha-like LIDAR receptors (AVPR-LIDAR and CX3CR1-LIDAR) in the same cell; assay type: cell-based, human; details: MCP/MS2 reporter outputs EGFP, PCP/PP7 reporter outputs mTagBFP; FIG. 10K
Protocol: To maintain a fast design-build-test cycle, unless specified, all prototyping experiments were performed by transiently co-transfecting receptor-encoding DNA plasmids into human embryonic kidney (HEK) 293 cells.
To program more complex multi-cellular behaviors, as well as to integrate multiple inputs for targeted cell therapies, it is often required to have receptors that process orthogonal signals in the same cell. In our most commonly used configuration (Tango-like LIDAR), the β-arrestin2-RBP fusion protein is recruited to all GPCRs without discrimination. This means that with two different GPCR-LIDAR receptors (e.g., AVPR-based LIDAR and CX3CR1-based LIDAR) the system would only be able to produce one output, triggered by either ligand. In the inverted version, the ADAR2dd and the RBP are interchanged to obtain the GPCR-RBP and β-arrestin2-ADAR2dd fusion proteins, analogous to TANGO vs. ChaCha receptors (25) (FIG. 10J). Because a separate RBP is needed for each receptor. MCP was used for a reporter RNA harboring MS2 loops and outputting EGFP and PP7 bacteriophage coat protein (PCP) for a reporter RNA harboring PP7 loops and outputting mTagBFP.

T1 sequence (P51684 whole entry, the tested form may be a part): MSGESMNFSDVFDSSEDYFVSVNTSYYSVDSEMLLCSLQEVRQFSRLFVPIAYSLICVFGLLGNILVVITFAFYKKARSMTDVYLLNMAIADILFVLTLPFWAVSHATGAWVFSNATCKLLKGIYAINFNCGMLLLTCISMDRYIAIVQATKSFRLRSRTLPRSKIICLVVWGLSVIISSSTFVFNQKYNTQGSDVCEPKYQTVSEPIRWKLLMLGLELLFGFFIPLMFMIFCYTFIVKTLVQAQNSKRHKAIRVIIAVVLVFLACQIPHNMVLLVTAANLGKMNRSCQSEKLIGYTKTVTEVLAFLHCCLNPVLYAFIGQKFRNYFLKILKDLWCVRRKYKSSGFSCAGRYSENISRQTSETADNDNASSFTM
T1 sequence (P32121 whole entry partner, the tested form may be a part): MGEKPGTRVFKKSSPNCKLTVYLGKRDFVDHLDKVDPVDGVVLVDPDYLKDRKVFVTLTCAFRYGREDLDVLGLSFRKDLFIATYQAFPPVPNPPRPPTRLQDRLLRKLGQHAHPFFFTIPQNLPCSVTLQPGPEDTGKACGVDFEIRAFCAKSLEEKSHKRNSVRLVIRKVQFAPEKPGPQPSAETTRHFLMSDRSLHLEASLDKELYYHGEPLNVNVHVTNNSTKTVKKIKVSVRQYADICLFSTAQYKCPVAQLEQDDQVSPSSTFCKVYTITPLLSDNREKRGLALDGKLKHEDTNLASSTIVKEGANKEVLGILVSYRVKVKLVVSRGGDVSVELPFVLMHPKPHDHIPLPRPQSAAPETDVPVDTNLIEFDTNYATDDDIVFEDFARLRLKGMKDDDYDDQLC

Molecule	cell death [2]	output produced by each ligand in the same cell [4]	further results
β-arrestin2-ADAR2dd (inverted / ChaCha-like LIDAR) (from UniProt P32121 1-409; P78563 299-701)	–	–	fold activation of inverted GPCR LIDAR [1]: < 17 ×
CC[C@H](C(=O)N1CCCC[C@H]1C(=O)O[C@H](CCc1ccc(OC)c(OC)c1)c1cccc(OCC(=O)NCCNC(=O)COc2cccc([C@@H](CCc3ccc(OC)c(OC)c3)OC(=O)[C@@H]3CCCCN3C(=O)[C@@H](CC)c3cc(OC)c(OC)c(OC)c3)c2)c1)c1cc(OC)c(OC)c(OC)c1 [AP1903, reference compound]	Substantial cell death	–	–
CCL20: chemokine, GPCR ligand of CCR6	Substantial cell death	–	ligand sensing by receiver cells [3]: senses
NC(=O)CC[C@@H]1NC(=O)[C@H](Cc2ccccc2)NC(=O)[C@H](Cc2ccc(O)cc2)NC(=O)[C@@H](N)CSSC[C@@H](C(=O)N2CCC[C@H]2C(=O)N[C@@H](CCCN=C(N)N)C(=O)NCC(N)=O)NC(=O)[C@H](CC(N)=O)NC1=O [AVP, Arginine vasopressin, reference compound]	–	EGFP exclusively	–
B1	–	mTagBFP exclusively	–
